Target: NStr-M35_S, M35 short version (aa 2-452) with N-terminal Twin-Strep tag and TEV cleavage sequence (murine cytomegalovirus (MCMV))
Experiment: SEC-MALS

“NStr-M35_S, M35 short version (aa 2-452) with N-terminal Twin-Strep tag and TEV cleavage sequence (domain or fragment)” was tested, and the stoichiometry N was 2.

From publication doi:10.1101/2023.03.21.533612
